pKd: −log10 of the molar value.

Data on one substance can be found in paper doi:10.1101/465930.

The experiment has as its target FGFR1 extracellular domain (UniProt P11362). The experiment is described as follows: optical biosensor.
Sequence of UniProt P11362 (P11362 22-376): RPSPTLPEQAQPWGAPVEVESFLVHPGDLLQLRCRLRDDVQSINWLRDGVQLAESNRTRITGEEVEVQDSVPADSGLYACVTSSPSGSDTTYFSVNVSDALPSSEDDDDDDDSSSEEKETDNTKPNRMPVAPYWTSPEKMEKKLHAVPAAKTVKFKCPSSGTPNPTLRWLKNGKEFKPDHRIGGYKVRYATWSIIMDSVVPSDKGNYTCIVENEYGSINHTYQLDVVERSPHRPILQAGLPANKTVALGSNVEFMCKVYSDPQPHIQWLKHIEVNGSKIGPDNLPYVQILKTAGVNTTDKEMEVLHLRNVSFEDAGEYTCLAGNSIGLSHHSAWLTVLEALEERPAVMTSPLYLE

The pKd is the Kd on a negative log10 scale, so that one unit is a factor of ten. Read a low pKd as a high Kd. “Ncad-Fc (from UniProt P19022 160-724) (Fc fusion)” showed a pKd of 6.97.
